From US20160297875A1 (CASE WESTERN RESERVE UNIVERSITY, published 2016)
Each block holds one molecule with its values, some of them ahead of it.

What was measured:
[1] = target: human platelet CD36 (human) (UniProt P16671); experiment: cell-based or functional assay
BSA = target: T1, BSA (bovine, UniProt P02769 25-607); experiment: plate binding assay, wells coated with BSA (10 µg/mL), detection with anti-human MRP-14 antibody and HRP-conjugated secondary antibody at 450 nm
T1 construct: also called bovine serum albumin
Method: High-protein binding plate (Nunc, Thermo Scientific) was coated with purified CD36 (Abcam) or BSA (10 μg/mL) overnight at 4° C. After blocking with 10% BSA at RT for 2 hours, purified human MRP-14 protein (0-2.5 μg/ml) was added and incubated for 2 hours at RT. After washing, plate was incubated with anti-human MRP-14 antibody for one hour followed by washing and incubation with HRP-conjugated secondary antibody that was detected with TMB substrate (Thermo Scientific) at 450 nm.

T1 sequence (P02769 25-607 limits assumed): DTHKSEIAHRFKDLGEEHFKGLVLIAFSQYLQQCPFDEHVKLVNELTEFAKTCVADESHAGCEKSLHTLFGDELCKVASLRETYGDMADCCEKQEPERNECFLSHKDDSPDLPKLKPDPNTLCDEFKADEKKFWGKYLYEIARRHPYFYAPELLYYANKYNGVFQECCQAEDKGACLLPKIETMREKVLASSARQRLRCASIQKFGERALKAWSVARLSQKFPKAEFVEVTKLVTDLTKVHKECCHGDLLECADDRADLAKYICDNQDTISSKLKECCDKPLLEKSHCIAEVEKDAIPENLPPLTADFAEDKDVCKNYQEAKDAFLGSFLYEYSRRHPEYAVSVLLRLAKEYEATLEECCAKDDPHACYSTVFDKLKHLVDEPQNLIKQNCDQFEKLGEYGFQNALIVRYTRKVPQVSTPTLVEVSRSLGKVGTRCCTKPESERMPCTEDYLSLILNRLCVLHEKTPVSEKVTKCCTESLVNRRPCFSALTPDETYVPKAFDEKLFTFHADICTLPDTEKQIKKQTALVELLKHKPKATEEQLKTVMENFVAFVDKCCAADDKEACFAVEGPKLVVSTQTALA
Chain of human platelet CD36 (human) (P16671 2-472 limits assumed): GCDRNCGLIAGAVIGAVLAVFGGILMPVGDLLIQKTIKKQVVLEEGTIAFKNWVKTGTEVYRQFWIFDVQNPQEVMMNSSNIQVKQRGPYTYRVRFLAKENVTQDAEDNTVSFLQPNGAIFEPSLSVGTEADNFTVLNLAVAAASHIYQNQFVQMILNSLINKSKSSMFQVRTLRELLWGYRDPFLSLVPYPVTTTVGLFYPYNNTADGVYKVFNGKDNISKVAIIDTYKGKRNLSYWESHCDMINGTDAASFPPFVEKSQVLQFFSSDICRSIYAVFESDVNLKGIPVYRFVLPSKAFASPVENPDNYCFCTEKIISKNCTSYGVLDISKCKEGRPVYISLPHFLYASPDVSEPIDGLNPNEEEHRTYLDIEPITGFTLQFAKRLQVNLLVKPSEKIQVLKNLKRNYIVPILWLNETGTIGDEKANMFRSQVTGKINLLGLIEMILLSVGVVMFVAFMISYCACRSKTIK

percentage of inhibition of shear-induced thrombus formation in anticoagulated human whole blood (antibody 10 µg/ml) [1]: 53.8%
Molecule: anti-human CD36 monoclonal antibody (clone FA6-152)

binding result (BSA): no binding (tested: 0-2.5 µg/ml MRP-14)
B1: purified, recombinant human MRP-14 (ligand, UniProt P06702 1-114, looked up)
chain: MTCKMSQLERNIETIINTFHQYSVKLGHPDTLNQGEFKELVRKDLQNFLKKENKNEKVIEHIMEDLDTNADKQLSFEEFIMLMARLTWASHEKMHEGDEGPGHHHKPGLGEGTP
notes: Bought protein; also called purified MRP-14; purified human MRP-14 protein
